From PMC10249821

Molecular target: gp41 of HIV-1 IIIB (HIV-1 IIIB) (UniProt P04578)

Substance	IC50 of inhibition of HIV-1 IIIB infection of MT-4 cells (MTT assay of virus-induced cytopathic effect, 5 days post infection) [nM]
Enfuvirtide Primary Reference Standard (peptide)	18
biosynthesized enfuvirtide (peptide)	45.3
